IntAct's records for PubMed 20562859

Columns and labels:
ATG16L2 = target: T1, ATG16L2 (UniProt Q8NAA4)
T1 sequence: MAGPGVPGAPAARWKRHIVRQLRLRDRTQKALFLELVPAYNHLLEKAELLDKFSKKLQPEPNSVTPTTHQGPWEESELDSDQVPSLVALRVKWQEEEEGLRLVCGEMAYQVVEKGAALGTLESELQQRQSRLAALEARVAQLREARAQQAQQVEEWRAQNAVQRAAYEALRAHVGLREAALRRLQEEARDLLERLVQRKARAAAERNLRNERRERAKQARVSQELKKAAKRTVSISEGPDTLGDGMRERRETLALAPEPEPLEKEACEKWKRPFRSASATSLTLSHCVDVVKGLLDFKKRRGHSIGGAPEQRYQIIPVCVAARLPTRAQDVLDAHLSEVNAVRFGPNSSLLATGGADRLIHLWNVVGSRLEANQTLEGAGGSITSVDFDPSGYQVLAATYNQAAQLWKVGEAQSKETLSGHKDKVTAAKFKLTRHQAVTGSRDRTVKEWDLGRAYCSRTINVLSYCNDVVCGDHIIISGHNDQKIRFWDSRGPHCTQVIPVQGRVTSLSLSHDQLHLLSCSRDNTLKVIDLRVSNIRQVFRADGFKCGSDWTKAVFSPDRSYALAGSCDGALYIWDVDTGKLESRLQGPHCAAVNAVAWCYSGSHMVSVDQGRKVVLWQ

rn123_human RNF123 = target: T2, rn123_human RNF123 (UniProt Q5XPI4)
T2 sequence: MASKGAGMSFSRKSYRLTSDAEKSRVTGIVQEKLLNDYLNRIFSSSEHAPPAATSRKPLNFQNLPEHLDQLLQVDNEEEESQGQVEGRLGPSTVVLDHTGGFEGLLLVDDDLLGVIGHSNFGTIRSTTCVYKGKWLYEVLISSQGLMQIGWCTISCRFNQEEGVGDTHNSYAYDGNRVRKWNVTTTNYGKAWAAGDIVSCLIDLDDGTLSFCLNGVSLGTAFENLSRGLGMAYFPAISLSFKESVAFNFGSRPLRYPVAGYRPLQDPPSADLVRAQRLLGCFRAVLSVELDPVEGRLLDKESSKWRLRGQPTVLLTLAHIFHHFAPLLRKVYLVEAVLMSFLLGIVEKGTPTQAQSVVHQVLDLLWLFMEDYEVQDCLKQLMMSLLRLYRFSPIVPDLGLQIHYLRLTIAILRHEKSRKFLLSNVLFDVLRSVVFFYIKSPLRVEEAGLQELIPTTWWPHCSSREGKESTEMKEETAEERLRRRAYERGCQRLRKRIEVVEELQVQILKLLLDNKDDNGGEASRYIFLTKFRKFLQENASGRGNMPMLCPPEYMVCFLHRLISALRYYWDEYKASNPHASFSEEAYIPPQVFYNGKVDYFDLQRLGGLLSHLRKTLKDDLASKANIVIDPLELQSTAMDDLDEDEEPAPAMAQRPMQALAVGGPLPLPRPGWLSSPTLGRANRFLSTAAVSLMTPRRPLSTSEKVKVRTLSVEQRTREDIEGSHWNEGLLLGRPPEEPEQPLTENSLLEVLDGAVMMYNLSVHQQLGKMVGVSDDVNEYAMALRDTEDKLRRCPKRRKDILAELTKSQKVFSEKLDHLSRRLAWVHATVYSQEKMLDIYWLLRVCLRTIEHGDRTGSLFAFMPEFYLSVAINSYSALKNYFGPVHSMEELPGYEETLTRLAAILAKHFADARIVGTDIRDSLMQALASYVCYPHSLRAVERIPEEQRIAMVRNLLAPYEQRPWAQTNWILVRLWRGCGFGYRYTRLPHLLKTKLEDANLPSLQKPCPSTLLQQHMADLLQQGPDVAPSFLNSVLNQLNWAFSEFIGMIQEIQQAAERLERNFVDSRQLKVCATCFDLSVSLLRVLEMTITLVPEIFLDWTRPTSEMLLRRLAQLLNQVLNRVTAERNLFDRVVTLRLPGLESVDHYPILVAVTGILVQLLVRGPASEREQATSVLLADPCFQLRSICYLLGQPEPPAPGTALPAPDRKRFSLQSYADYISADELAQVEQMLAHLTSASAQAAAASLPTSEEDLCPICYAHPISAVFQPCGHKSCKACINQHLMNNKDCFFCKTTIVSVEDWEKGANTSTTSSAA

kap0_human PRKAR1A = kap0_human PRKAR1A (UniProt P10644)
tbd2b_human TBC1D2B = target: T3, tbd2b_human TBC1D2B (UniProt Q9UPU7)
T3 sequence: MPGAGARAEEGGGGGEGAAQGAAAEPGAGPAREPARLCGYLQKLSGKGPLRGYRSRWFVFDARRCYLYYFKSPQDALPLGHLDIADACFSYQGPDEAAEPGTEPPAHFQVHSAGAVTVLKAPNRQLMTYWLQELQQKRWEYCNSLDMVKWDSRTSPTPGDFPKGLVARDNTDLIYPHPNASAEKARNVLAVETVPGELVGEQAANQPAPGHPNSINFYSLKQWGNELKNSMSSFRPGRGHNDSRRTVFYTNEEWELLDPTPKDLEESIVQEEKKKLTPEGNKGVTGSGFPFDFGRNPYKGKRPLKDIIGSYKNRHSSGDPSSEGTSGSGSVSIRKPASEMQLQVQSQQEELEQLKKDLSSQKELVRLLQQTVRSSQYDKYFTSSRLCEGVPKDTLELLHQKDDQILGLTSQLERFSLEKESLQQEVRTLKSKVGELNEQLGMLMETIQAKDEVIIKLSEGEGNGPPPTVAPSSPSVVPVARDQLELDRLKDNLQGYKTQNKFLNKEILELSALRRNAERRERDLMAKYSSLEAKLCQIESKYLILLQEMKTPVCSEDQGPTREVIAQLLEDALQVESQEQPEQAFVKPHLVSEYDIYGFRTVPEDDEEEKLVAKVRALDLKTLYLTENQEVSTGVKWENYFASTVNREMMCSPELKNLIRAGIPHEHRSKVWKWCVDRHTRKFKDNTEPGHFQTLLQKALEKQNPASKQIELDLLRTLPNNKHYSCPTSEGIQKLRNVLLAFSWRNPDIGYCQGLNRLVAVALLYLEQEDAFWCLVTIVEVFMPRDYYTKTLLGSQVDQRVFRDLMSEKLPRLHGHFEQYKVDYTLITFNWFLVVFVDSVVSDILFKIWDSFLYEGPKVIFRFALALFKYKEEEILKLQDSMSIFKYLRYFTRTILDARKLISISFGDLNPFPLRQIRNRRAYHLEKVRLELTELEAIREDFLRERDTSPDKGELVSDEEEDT

Chain of kap0_human PRKAR1A (P10644 whole entry): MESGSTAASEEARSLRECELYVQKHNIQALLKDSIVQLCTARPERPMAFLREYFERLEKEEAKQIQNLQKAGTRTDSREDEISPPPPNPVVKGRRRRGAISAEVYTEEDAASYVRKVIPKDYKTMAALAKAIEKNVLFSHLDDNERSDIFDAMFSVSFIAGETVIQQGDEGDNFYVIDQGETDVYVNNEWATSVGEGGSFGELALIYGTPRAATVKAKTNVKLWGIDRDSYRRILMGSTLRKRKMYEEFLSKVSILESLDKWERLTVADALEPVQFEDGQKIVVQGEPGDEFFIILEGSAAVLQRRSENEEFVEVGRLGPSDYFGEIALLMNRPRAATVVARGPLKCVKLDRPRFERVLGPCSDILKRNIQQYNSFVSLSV

effect of a mutation on the interaction (ATG16L2) | effect of a mutation on the interaction (rn123_human RNF123) | effect of a mutation on the interaction (kap0_human PRKAR1A) | effect of a mutation on the interaction (tbd2b_human TBC1D2B) | Substance
increasing interaction | increasing interaction | – | – | Microtubule-associated protein 1 light chain 3 beta (Homo sapiens) (from UniProt Q9GZQ8) F52A;L53A
– | decreasing interaction | decreasing interaction | disrupting interaction | Microtubule-associated protein 1 light chain 3 beta (Homo sapiens) (from UniProt Q9GZQ8) R69A
